In patent publication US20240352121A1 (NEXTCURE, published 2024):

Tests used:
[1] = biological target: T1, LAIR-1 (human; form used for the KD not stated) (human, UniProt Q6GTX8 22-165, limits assumed); experiment: method not stated (in vitro activity listed in the legend of FIG. 20)
T1 construct: also called Leukocyte Associated Immunoglobulin Like Receptor 1
T1 chain: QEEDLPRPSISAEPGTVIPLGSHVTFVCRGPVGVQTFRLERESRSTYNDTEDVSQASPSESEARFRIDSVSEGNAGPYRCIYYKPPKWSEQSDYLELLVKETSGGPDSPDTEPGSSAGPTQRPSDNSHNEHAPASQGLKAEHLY

[2] = biological target: T2, human LAIR-1 expressed on cells (293T cells overexpressing human LAIR-1; leukemic cells) (human, UniProt Q6GTX8 22-287); experiment: cell binding, human LAIR-1 cells (FIG. 20A)
T2 construct: also called human LAIR-1 cells
T2 chain: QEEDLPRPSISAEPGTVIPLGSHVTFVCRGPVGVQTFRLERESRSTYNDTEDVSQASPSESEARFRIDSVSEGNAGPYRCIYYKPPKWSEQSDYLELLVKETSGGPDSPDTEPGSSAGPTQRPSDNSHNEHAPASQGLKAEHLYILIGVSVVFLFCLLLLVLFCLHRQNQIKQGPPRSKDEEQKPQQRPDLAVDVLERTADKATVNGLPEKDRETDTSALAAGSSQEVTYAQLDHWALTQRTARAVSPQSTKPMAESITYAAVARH

[3] = biological target: human LAIR-1 fused to the zeta chain of CD3, on UT-140 reporter cells (human, UniProt P20963 31-164); experiment: cell-based or functional assay

Kd [1]: 2100 pM
EC50 [2]: 150 pM
blocks signaling IC50 [3]: 250 pM
B1: h11B3 LAIR-1 mAb, Anti-LAIR-1 Variant 6 (h11B3 VL-2 / h11B3 VH-3) (antibody, V domains shown)
VH: EVQLVESGGGLVQPGGSLKLSCAASGFTFNTNAMYWVRQAPGKGLEWVGRIRSKSSNYATYYAASVKGRFTISRDDSKNTLYLQMNSLKTEDTAVYYCVRGGSGFFAYWGQGTLVTVSS
VL: DIQMTQSPSSLSASLGDRVTITCKASEDIYIRLAWYQQKPGKAPRLLISTATSLETGVPSRFSGSGSGTDYTFTISSLQPEDIATYYCQQYWSTPYTFGGGTRLEIK
notes: In the MV4-11 staining the mAb was AF647-conjugated; also called h11B3v6; humanized 11B3 LAIR-1 mAbs
